Test results taken from PMC4705684, “DNA binding fluorescent proteins for the direct visualization of large DNA molecules”.

What was measured:
[1] = system: FP(eGFP)-DBP (synthetic construct; expressed in E. coli BL21 (DE3)); assay: EMSA; details: EMSA: 1x TE (10 mM Tris, 1 mM EDTA, pH 8.0) with 50% (v/v) glycerol, 10 ul, DNA stock ~31.4 nM, protein stocks 74 nM-148 uM, 0.5x TBE 4-20% PAGE, temperature …
[2] = biological target: T1, DBP peptide KWKWKKA (synthetic construct); assay: UV absorbance quenching at 260 nm; stoichiometry 3 bp per DBP; EMSA: 1x TE (10 mM Tris, 1 mM EDTA, pH 8.0) with 50% (v/v) glycerol, 10 ul, DNA stock ~31.4 nM, protein stocks 74 nM-148 uM, 0.5x TBE 4-20% PAGE, temperature not stated; spectra in 1x TE; imaging in TE pH 8.0; details: label: none (EtBr post-stain in EMSA); blunt
T1 chain: KWKWKKA

Row | Molecule | Kd [1] | binding result [2]
1 | CTACTAGCACAATCGACTGTACGGACCGATCGAGTCACTAGCAGTCTAGCAA (double strand) [52-mer random dsDNA] | 14.7 µM | –
2 | 52-mer random dsDNA (dsDNA) DNA 1: CTACTAGCACAATCGACTGTACGGACCGATCGAGTCACTAGCAGTCTAGCAA DNA 2: TTGCTAGACTGCTAGTGACTCGATCGGTCCGTACAGTCGATTGTGCTAGTAG | – | binds
